Source: patent publication US6956104B2, “Protein Rim2” (JCR Pharmaceuticals Co., Ltd., priority 1999, dated 2005)

Key:
[1] = target: T1, constitutively active Rab3A (Q81L) (Bos taurus, UniProt P11023, Q81L); test: Yeast two-hybrid assay with Rab3A; assay type: binding, bovine; conditions: transactivation of liquid β-galactosidase activity
T1 construct: the full-length cDNA's for wild type mouse Rab3A and constitutively active bovine Rab3A (Q81L) were cloned into the yeast bait vector pBTM116; expressed in transfected cells
T1 sequence (P11023 1-220 Q81L): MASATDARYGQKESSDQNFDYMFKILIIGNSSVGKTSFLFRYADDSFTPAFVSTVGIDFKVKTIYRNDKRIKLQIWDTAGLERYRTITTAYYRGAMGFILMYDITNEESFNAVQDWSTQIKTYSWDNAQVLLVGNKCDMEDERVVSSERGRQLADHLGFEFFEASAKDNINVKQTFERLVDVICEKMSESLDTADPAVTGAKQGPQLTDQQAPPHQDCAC
Description: According to the method described in “Identification of Interacting molecules by YTH Method”, the full-length cDNA's for wild type mouse Rab3A and constitutively active bovine Rab3A (Q81L) were cloned into the yeast bait vector pBTM116.
The nucleotide sequence of zinc finger domains of bovine rabphilin3 (amino acid residues 1-283), rat Rim1 (amino acid residues 1-204) and mouse Rim2 (amino acid residues 1-345 were cloned into the prey vector pVP16. Liquid culture assay of […] activities was performed according to the manufacturer's instructions (Clontech). The activity values were obtained from 3 independent clones for each transformant and normalized by cell numbers determined as OD600.

[2] = target: T2, cAMP-GEFII (Mus musculus, UniProt Q9EQZ6); test: GST pull-down, interaction of Rim with cAMP-GEFII; assay type: binding; conditions: lysates of COS-1 or MIN6 cells, or mouse brain homogenate; immunoblotting
T2 construct: A full-length cAMP-GEFII cDNA was subcloned into plasmid pFLAG-CMV-2 (Sigma); expressed in transfected cells; host or cells: COS-1 cells
T2 sequence (Q9EQZ6 1-1011): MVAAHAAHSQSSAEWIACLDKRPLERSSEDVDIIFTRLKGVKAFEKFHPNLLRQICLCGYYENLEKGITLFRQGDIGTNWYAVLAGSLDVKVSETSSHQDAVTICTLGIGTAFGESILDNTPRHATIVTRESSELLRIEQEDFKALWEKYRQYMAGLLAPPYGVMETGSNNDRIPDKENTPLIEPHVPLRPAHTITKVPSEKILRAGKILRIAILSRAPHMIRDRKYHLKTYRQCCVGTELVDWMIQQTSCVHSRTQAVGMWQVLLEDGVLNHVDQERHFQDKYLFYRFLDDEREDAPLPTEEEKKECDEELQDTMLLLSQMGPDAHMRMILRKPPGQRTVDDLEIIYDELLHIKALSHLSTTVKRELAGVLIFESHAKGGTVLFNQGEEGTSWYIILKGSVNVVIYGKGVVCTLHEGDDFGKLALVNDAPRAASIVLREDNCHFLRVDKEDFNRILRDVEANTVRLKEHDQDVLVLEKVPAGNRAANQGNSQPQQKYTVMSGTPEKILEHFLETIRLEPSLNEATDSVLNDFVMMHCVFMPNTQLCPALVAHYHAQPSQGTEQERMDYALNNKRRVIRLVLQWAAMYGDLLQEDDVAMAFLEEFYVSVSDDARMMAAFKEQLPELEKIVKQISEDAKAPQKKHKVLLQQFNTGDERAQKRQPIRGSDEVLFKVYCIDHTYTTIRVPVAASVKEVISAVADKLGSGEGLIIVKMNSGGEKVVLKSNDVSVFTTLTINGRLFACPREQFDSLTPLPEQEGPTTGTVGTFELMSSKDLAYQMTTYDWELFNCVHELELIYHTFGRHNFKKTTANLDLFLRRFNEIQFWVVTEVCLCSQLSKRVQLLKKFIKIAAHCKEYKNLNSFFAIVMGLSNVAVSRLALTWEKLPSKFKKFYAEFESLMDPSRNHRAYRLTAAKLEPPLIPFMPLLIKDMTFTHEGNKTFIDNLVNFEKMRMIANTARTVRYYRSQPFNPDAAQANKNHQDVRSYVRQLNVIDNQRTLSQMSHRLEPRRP
Protocol: Rim2 (amino acid residues 538-863) was expressed as a GST fusion protein and purified according to the method described in “Preparation and Test of GST fusion Protein”. A full-length cAMP-GEFII cDNA was subcloned into plasmid pFLAG-CMV-2 (Sigma). The resultant construct was transfected into COS-1 cells, using LipofectAMINE (Life Technologies). The lysate of the COS-1 cells was incubated with GST-Rim2 immobilized on glutathione beads for 2 hrs at 4° C. The complex thus obtained was washed with distilled water, separated by SDS-PAGE, and immunoblotted with an anti-FLAG M2 antibody (Sigma).
The lysate of MIN6 cells was incubated with GST-Rim2 and interaction between cAMP-GEFII and Rim2 was evaluated according to the method described in “Study on Interaction between Rim2 and cAMP-GEFII: I”, using a IgG antibody raised against the C-terminus (amino acid residues 1001-1011, […] (SEQ ID NO:5) of mouse cAMP-GEFII.
According to the method described in “Preparation and Test of GST fusion Protein”, Rim1 partial sequence (530-806) was expressed as a GST fusion protein and then purified. The brain homogenate from three mice was incubated with GST-Rim1 immobilized on glutathione beads overnight at 4° C. cAMP-GEFII was detected as described in “Study on Interaction between Rim2 and cAMP-GEFII: II”.

[3] = tested on: Rab3A; test: In vitro binding of Rab3A to immobilized GST-Rim; conditions: immobilized on glutathione beads; anti-Rab3A immunoblotting
Protocol: Lipid-modified Rab3A was purified from the membrane fraction of Sf9 cells expressing Rab3A. Rat Rim1 (amino acid residues 1-204) and mouse Rim2 (amino acid residues 1-345) were expressed as GST fusion proteins and purified. The GTP γS- or GDP βS-bound form of Rab3A was incubated for 90 min at 4° C. with GST-Rim1, or GST-Rim2 (30 pmol for each) immobilized on glutathione beads in reaction buffer. Rab3A was detected by immunoblotting with anti-Rab3A antibody.

interaction with active Rab3A (Q81L) [1]: interacts | interaction with cAMP-GEFII protein [2]: bound | binding to GTPγS- or GDP-bound form of Rab3A [3]: binds to the GTP-activated form
B1: Rim1: Rab3-interacting molecule, putative effector of the small G protein Rab3; rat, used as GST fusion (protein)
chain: MSSAVGPRGPRPPTVPPPMQELPDLSHLTEEERNIIMAVMDRQKEEEEKEEAMLKCVVRDMAKPAACKTPRNAESQPHQPPLNIFRCVCVPRKPSSEEGGPERDWRLHQQFESYKEQVRKIGEEARRYQGEHKDDAPTCGICHKTKFADGCGHLCSYCRTKFCARCGGRVSLRSNNEDKVVMWVCNLCRKQQEILTKSGAWFFG
modifications: left off: large carriers
notes: rat, used as GST fusion
